# Data published in patent US20200317768A1 (published 2020).
# T1: cynomolgus monkey FcγRIIa1 extracellular domain, C-terminal His-tag (cynomolgus monkey)
# T1 construct: also called cyno FcγRIIa1; cynoFcgRIIa1; not shown: His-tag added to C-terminus
# T1 chain: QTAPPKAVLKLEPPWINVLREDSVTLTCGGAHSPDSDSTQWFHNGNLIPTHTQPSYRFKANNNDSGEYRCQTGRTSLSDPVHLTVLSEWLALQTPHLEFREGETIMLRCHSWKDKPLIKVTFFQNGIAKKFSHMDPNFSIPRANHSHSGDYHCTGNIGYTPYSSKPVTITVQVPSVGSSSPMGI
# T2: human FcγRIIb extracellular domain, C-terminal His-tag (human, UniProt P31994 43-217)
# T2 construct: also called humanFcgRIIb; not shown: His-tag added to C-terminus
# T2 sequence: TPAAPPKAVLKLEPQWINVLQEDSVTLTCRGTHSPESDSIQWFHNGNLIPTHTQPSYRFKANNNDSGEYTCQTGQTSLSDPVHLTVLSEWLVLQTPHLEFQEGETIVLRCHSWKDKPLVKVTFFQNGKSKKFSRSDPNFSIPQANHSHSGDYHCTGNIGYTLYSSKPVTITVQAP
# T3: cynomolgus monkey FcγRIIb extracellular domain, C-terminal His-tag (cynomolgus monkey)
# T3 construct: also called cyno FcγRIIb; cynoFcγRIIb; not shown: His-tag added to C-terminus
# T3 chain: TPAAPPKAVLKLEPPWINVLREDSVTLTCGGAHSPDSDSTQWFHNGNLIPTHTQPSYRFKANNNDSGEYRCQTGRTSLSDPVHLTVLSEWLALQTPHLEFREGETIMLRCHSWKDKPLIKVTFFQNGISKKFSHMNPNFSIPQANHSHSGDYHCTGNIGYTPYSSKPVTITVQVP
# Key:
# Assay in all cases: SPR (BIACORE); KD of SG1 / KD of variant
# [1] = target: T1, cynomolgus monkey FcγRIIa1 …
# [2] = target: T2, human FcγRIIb extracellular domain, …
# [3] = target: T3, cynomolgus monkey FcγRIIb extracellular …
Binder,KD fold (SG1 = 1) [1],KD fold (SG1 = 1) [2],KD fold (SG1 = 1) [3]
"MS_M103205H795-SG1/M103202L889-SK1 (antibody, human IgG1, kappa, Parent antibody with SG1 human heavy chain constant region; also called MS1032LO06-SG1) heavy: not shown light: DIVMTQSPATLSLSPGERATLSCTSSQSVYHANWLSWFQQKPGQPPKLLIYWASTLAYGVPSRFSGSGSGTDFTLTISSLQPEDAATYYCAGGYGGGRYAFGQGTKVEIKRTVAAPSVFIFPPSDEQLKSGTASVVCLLNNFYPREAKVQWKVDNALQSGNSQESVTEQDSKDSTYSLSSTLTLSKADYEKHKVYACEVTHQGLSSPVTKSFNRGEC",1 fold,1 fold,1 fold
"M103205H795-MY101 / M103202L889-SK1 (antibody, human IgG1, kappa, CH with G236N/H268E/A330K/P396M against SG1 (EU numbering); also called MS1032LO06-MY101) heavy: QVTLKESGPVLVKPTETLTLTCTVSGIDLSHDDISWVRQAPGKGLEWVGIISYAGSTYYASWAKGRLTISKDTSKNQVVLTMTNMDPVDTATYYCARGVPAYSHGGDLWGQGTLVTVSSASTKGPSVFPLAPSSKSTSGGTAALGCLVKDYFPEPVTVSWNSGALTSGVHTFPAVLQSSGLYSLSSVVTVPSSSLGTQTYICNVNHKPSNTKVDKKVEPKSCDKTHTCPPCPAPELLNGPSVFLFPPKPKDTLMISRTPEVTCVVVDVSEEDPEVKFNWYVDGVEVHNAKTKPREEQYNSTYRVVSVLTVLHQDWLNGKEYKCKVSNKALPKPIEKTISKAKGQPREPQVYTLPPSREEMTKNQVSLTCLVKGFYPSDIAVEWESNGQPENNYKTTPMVLDSDGSFFLYSKLTVDKSRWQQGNVFSCSVMHEALHNHYTQKSLSLSP light: DIVMTQSPATLSLSPGERATLSCTSSQSVYHANWLSWFQQKPGQPPKLLIYWASTLAYGVPSRFSGSGSGTDFTLTISSLQPEDAATYYCAGGYGGGRYAFGQGTKVEIKRTVAAPSVFIFPPSDEQLKSGTASVVCLLNNFYPREAKVQWKVDNALQSGNSQESVTEQDSKDSTYSLSSTLTLSKADYEKHKVYACEVTHQGLSSPVTKSFNRGEC",2.9 fold,9.4 fold,5.1 fold
"M103205H795-MY201 / M103202L889-SK1 (antibody, human IgG1, kappa, CH with G236N/H268D/A330K against SG1 (EU numbering); also called MS1032LO06-MY201) heavy: QVTLKESGPVLVKPTETLTLTCTVSGIDLSHDDISWVRQAPGKGLEWVGIISYAGSTYYASWAKGRLTISKDTSKNQVVLTMTNMDPVDTATYYCARGVPAYSHGGDLWGQGTLVTVSSASTKGPSVFPLAPSSKSTSGGTAALGCLVKDYFPEPVTVSWNSGALTSGVHTFPAVLQSSGLYSLSSVVTVPSSSLGTQTYICNVNHKPSNTKVDKKVEPKSCDKTHTCPPCPAPELLNGPSVFLFPPKPKDTLMISRTPEVTCVVVDVSDEDPEVKFNWYVDGVEVHNAKTKPREEQYNSTYRVVSVLTVLHQDWLNGKEYKCKVSNKALPKPIEKTISKAKGQPREPQVYTLPPSREEMTKNQVSLTCLVKGFYPSDIAVEWESNGQPENNYKTTPPVLDSDGSFFLYSKLTVDKSRWQQGNVFSCSVMHEALHNHYTQKSLSLSP light: DIVMTQSPATLSLSPGERATLSCTSSQSVYHANWLSWFQQKPGQPPKLLIYWASTLAYGVPSRFSGSGSGTDFTLTISSLQPEDAATYYCAGGYGGGRYAFGQGTKVEIKRTVAAPSVFIFPPSDEQLKSGTASVVCLLNNFYPREAKVQWKVDNALQSGNSQESVTEQDSKDSTYSLSSTLTLSKADYEKHKVYACEVTHQGLSSPVTKSFNRGEC",2.3 fold,4.2 fold,4.2 fold
"M103205H795-MY205 / M103202L889-SK1 (antibody, human IgG1, kappa, CH with G236N/H268D/Q295L/A330K against SG1 (EU numbering); also called MS1032LO06-MY205) heavy: QVTLKESGPVLVKPTETLTLTCTVSGIDLSHDDISWVRQAPGKGLEWVGIISYAGSTYYASWAKGRLTISKDTSKNQVVLTMTNMDPVDTATYYCARGVPAYSHGGDLWGQGTLVTVSSASTKGPSVFPLAPSSKSTSGGTAALGCLVKDYFPEPVTVSWNSGALTSGVHTFPAVLQSSGLYSLSSVVTVPSSSLGTQTYICNVNHKPSNTKVDKKVEPKSCDKTHTCPPCPAPELLNGPSVFLFPPKPKDTLMISRTPEVTCVVVDVSDEDPEVKFNWYVDGVEVHNAKTKPREELYNSTYRVVSVLTVLHQDWLNGKEYKCKVSNKALPKPIEKTISKAKGQPREPQVYTLPPSREEMTKNQVSLTCLVKGFYPSDIAVEWESNGQPENNYKTTPPVLDSDGSFFLYSKLTVDKSRWQQGNVFSCSVMHEALHNHYTQKSLSLSP light: DIVMTQSPATLSLSPGERATLSCTSSQSVYHANWLSWFQQKPGQPPKLLIYWASTLAYGVPSRFSGSGSGTDFTLTISSLQPEDAATYYCAGGYGGGRYAFGQGTKVEIKRTVAAPSVFIFPPSDEQLKSGTASVVCLLNNFYPREAKVQWKVDNALQSGNSQESVTEQDSKDSTYSLSSTLTLSKADYEKHKVYACEVTHQGLSSPVTKSFNRGEC",3.6 fold,8.2 fold,7.2 fold
"M103205H795-MY335 / M103202L889-SK1 (antibody, human IgG1, kappa, CH with G236T/H268D/Q311R/A330K/D413K against SG1 (EU numbering); also called MS1032LO06-MY335) heavy: QVTLKESGPVLVKPTETLTLTCTVSGIDLSHDDISWVRQAPGKGLEWVGIISYAGSTYYASWAKGRLTISKDTSKNQVVLTMTNMDPVDTATYYCARGVPAYSHGGDLWGQGTLVTVSSASTKGPSVFPLAPSSKSTSGGTAALGCLVKDYFPEPVTVSWNSGALTSGVHTFPAVLQSSGLYSLSSVVTVPSSSLGTQTYICNVNHKPSNTKVDKKVEPKSCDKTHTCPPCPAPELLTGPSVFLFPPKPKDTLMISRTPEVTCVVVDVSDEDPEVKFNWYVDGVEVHNAKTKPREEQYNSTYRVVSVLTVLHRDWLNGKEYKCKVSNKALPKPIEKTISKAKGQPREPQVYTLPPSREEMTKNQVSLTCLVKGFYPSDIAVEWESNGQPENNYKTTPPVLDSDGSFFLYSKLTVKKSRWQQGNVFSCSVMHEALHNHYTQKSLSLSP light: DIVMTQSPATLSLSPGERATLSCTSSQSVYHANWLSWFQQKPGQPPKLLIYWASTLAYGVPSRFSGSGSGTDFTLTISSLQPEDAATYYCAGGYGGGRYAFGQGTKVEIKRTVAAPSVFIFPPSDEQLKSGTASVVCLLNNFYPREAKVQWKVDNALQSGNSQESVTEQDSKDSTYSLSSTLTLSKADYEKHKVYACEVTHQGLSSPVTKSFNRGEC",1.6 fold,2 fold,2.8 fold
"M103205H795-MY344 / M103202L889-SK1 (antibody, human IgG1, kappa, CH with G236N/H268D/Q295L/Q311R/A330K/D413K against SG1 (EU numbering); also called MS1032LO06-MY344) heavy: QVTLKESGPVLVKPTETLTLTCTVSGIDLSHDDISWVRQAPGKGLEWVGIISYAGSTYYASWAKGRLTISKDTSKNQVVLTMTNMDPVDTATYYCARGVPAYSHGGDLWGQGTLVTVSSASTKGPSVFPLAPSSKSTSGGTAALGCLVKDYFPEPVTVSWNSGALTSGVHTFPAVLQSSGLYSLSSVVTVPSSSLGTQTYICNVNHKPSNTKVDKKVEPKSCDKTHTCPPCPAPELLNGPSVFLFPPKPKDTLMISRTPEVTCVVVDVSDEDPEVKFNWYVDGVEVHNAKTKPREELYNSTYRVVSVLTVLHRDWLNGKEYKCKVSNKALPKPIEKTISKAKGQPREPQVYTLPPSREEMTKNQVSLTCLVKGFYPSDIAVEWESNGQPENNYKTTPPVLDSDGSFFLYSKLTVKKSRWQQGNVFSCSVMHEALHNHYTQKSLSLSP light: DIVMTQSPATLSLSPGERATLSCTSSQSVYHANWLSWFQQKPGQPPKLLIYWASTLAYGVPSRFSGSGSGTDFTLTISSLQPEDAATYYCAGGYGGGRYAFGQGTKVEIKRTVAAPSVFIFPPSDEQLKSGTASVVCLLNNFYPREAKVQWKVDNALQSGNSQESVTEQDSKDSTYSLSSTLTLSKADYEKHKVYACEVTHQGLSSPVTKSFNRGEC",3.6 fold,6.4 fold,5.8 fold
